Measured values: article PMC6261651, “A functional proteomics platform to reveal the sequence determinants of lysine methyltransferase substrate selectivity” (Science Advances, 2018)
Positions count from the first letter of the chain named. Names and notes keep the numbering of the source. “Also recorded” adds a separate entry of the source.

B1: PER2: recombinant PER2 (amino acids 691 to 900), N-terminal MBP-His fusion (protein, UniProt O15055 691-900, looked up, fragment)
chain: VEDAASGPESLDCLAGPALACGLSQEKEPFKKLGLTKEVLAAHTQKEEQSFLQKFKEIRKLSIFQSHCHYYLQERSKGQPSERTAPGLRNTSGIDSPWKKTGKNRKLKSKRVKPRDSSESTGSGGPVSARPPLVGLNATAWSPSDTSQSSCPAVPFPAPVPAAYSLPVFPAPGTVAAPPAPPHASFTVPAVPVDLQHQFAVQPPPFPAPL
modifications: N-terminal MBP-His fusion
notes: recombinant PER2 (amino acids 691 to 900), N-terminal MBP-His fusion
B2: GDAP1: recombinant GDAP1 (full length), Abcam (protein, UniProt Q8TB36 1-358, looked up)
chain: MAERQEEQRGSPPLRAEGKADAEVKLILYHWTHSFSSQKVRLVIAEKALKCEEHDVSLPLSEHNEPWFMRLNSTGEVPVLIHGENIICEATQIIDYLEQTFLDERTPRLMPDKESMYYPRVQHYRELLDSLPMDAYTHGCILHPELTVDSMIPAYATTRIRSQIGNTESELKKLAEENPDLQEAYIAKQKRLKSKLLDHDNVKYLKKILDELEKVLDQVETELQRRNEETPEEGQQPWLCGESFTLADVSLAVTLHRLKFLGFARRNWGNGKRPNLETYYERVLKRKTFNKVLGHVNNILISAVLPTAFRVAKKRAPKVLGTTLVVGLLAGVGYFAFMLFRKRLGSMILAFRPRPNYF
modifications: full-length
notes: recombinant GDAP1 (full length), Abcam
B3: ZPK: recombinant protein, predicted SMYD2 substrate (protein, UniProt Q12852 1-859, looked up)
Mitogen-activated protein …: MACLHETRTPSPSFGGFVSTLSEASMRKLDPDTSDCTPEKDLTPTHVLQLHEQDAGGPGGAAGSPESRASRVRADEVRLQCQSGSGFLEGLFGCLRPVWTMIGKAYSTEHKQQQEDLWEVPFEEILDLQWVGSGAQGAVFLGRFHGEEVAVKKVRDLKETDIKHLRKLKHPNIITFKGVCTQAPCYCILMEFCAQGQLYEVLRAGRPVTPSLLVDWSMGIAGGMNYLHLHKIIHRDLKSPNMLITYDDVVKISDFGTSKELSDKSTKMSFAGTVAWMAPEVIRNEPVSEKVDIWSFGVVLWELLTGEIPYKDVDSSAIIWGVGSNSLHLPVPSSCPDGFKILLRQCWNSKPRNRPSFRQILLHLDIASADVLSTPQETYFKSQAEWREEVKLHFEKIKSEGTCLHRLEEELVMRRREELRHALDIREHYERKLERANNLYMELNALMLQLELKERELLRREQALERRCPGLLKPHPSRGLLHGNTMEKLIKKRNVPQKLSPHSKRPDILKTESLLPKLDAALSGVGLPGCPKGPPSPGRSRRGKTRHRKASAKGSCGDLPGLRTAVPPHEPGGPGSPGGLGGGPSAWEACPPALRGLHHDLLLRKMSSSSPDLLSAALGSRGRGATGGAGDPGSPPPARGDTPPSEGSAPGSTSPDSPGGAKGEPPPPVGPGEGVGLLGTGREGTSGRGGSRAGSQHLTPAALLYRAAVTRSQKRGISSEEEEGEVDSEVELTSSQRWPQSLNMRQSLSTFSSENPSDGEEGTASEPSPSGTPEVGSTNTDERPDERSDDMCSQGSEIPLDPPPSEVIPGPEPSSLPIPHQELLRERGPPNSEDSDCDSTELDNSNSVDALRPPASLPP
B4: ATP6V1G3: recombinant ATP6V1G3 (full length), N-terminal GST fusion (protein, UniProt Q96LB4 1-118, looked up)
chain: MTSQSQGIHQLLQAEKRAKDKLEEAKKRKGKRLKQAKEEAMVEIDQYRMQRDKEFRLKQSKIMGSQNNLSDEIEEQTLGKIQELNGHYNKYMESVMNQLLSMVCDMKPEIHVNYRATN
modifications: full-length N-terminal GST fusion
B5: CDC5L: recombinant CDC5L (amino acids 150 to 280), N-terminal GST fusion (protein, UniProt Q99459 150-280, looked up, fragment)
chain: EMLSEARARLANTQGKKAKRKAREKQLEEARRLAALQKRRELRAAGIEIQKKRKRKRGVDYNAEIPFEKKPALGFYDTSEENYQALDADFRKLRQQDLDGELRSEKEGRDRKKDKQHLKRKKESDLPSAIL
modifications: N-terminal GST fusion
notes: recombinant CDC5L (amino acids 150 to 280), N-terminal GST fusion
B6: MAPKAPK3: full-length recombinant MAPKAPK3, known SMYD2 substrate (protein, UniProt Q16644 1-382, looked up)
chain: MDGETAEEQGGPVPPPVAPGGPGLGGAPGGRREPKKYAVTDDYQLSKQVLGLGVNGKVLECFHRRTGQKCALKLLYDSPKARQEVDHHWQASGGPHIVCILDVYENMHHGKRCLLIIMECMEGGELFSRIQERGDQAFTEREAAEIMRDIGTAIQFLHSHNIAHRDVKPENLLYTSKEKDAVLKLTDFGFAKETTQNALQTPCYTPYYVAPEVLGPEKYDKSCDMWSLGVIMYILLCGFPPFYSNTGQAISPGMKRRIRLGQYGFPNPEWSEVSEDAKQLIRLLLKTDPTERLTITQFMNHPWINQSMVVPQTPLHTARVLQEDKDHWDEVKEEMTSALATMRVDYDQVKIKDLKTSNNRLLNKRRKKQAGSSSASQGCNNQ
modifications: full-length
notes: full-length recombinant MAPKAPK3, known SMYD2 substrate
B7: MAPKAPK3 (D353R and T356S): MAPKAPK3 with mutations predicted to enhance methylation (protein, UniProt Q16644 1-382, looked up, variant D353R T356S)
MAP kinase-activated protein …: B6 chain with D353R, T356S

Each molecule was assayed against T1, SMYD2 (Homo sapiens, UniProt Q9NRG4) (assay: SPA kinetic analysis of SMYD2 methylation of peptide substrates). Conditions: 200 nM SMYD2, 50 μM SAM, varied substrate concentration, mean of three independent measurements (Fig. 4D).
T1 construct: SMYD2 (full length) was expressed as a N-terminal glutathione S-transferase (GST) fusion; GST (N); made in house; host or cells: Escherichia coli BL21(DE3)
T1 sequence (Q9NRG4 whole entry, the tested form may be a part): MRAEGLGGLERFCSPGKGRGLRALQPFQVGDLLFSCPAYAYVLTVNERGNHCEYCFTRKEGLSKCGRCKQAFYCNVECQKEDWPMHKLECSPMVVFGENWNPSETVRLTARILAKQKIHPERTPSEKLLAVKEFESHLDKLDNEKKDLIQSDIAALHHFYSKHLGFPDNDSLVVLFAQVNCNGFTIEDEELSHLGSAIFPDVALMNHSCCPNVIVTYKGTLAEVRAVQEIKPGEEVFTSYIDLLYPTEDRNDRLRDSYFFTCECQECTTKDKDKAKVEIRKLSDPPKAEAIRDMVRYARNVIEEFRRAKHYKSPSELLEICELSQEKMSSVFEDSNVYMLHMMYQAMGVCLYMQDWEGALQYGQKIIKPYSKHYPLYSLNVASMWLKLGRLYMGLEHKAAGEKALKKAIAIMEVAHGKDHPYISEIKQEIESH
Format: biochemical
Description: Reactions (10 μl) containing 1 μg of KMT, 1 μg of a K-OPL set, and 1 μCi of ^3H-SAM (PerkinElmer) in KMT reaction buffer [50 mM tris (pH 8.8), 5 mM MgCl2, and 4 mM dithiothreitol] were incubated for 1 hour at room temperature. Reactions were stopped by adding trifluoracetic acid to a final concentration of 0.5%, neutralized by diluting with 135 μl of 50 mM NaHCO3, and transferred to streptavidin-coated FlashPlates (PerkinElmer). Plates were incubated for 15 min, sealed, and counted in a MicroBeta2 liquid scintillation counter (PerkinElmer) for 1 min per sample. Initial rate measure and kinetic analysis were performed using the same procedure with 200 nM SMYD2, 50 μM SAM (5:1 cold/hot ratio), and 80 μM substrate (initial rate measurements) or as indicated (kinetic analysis). IC50 measurements were performed using the same conditions with 5 μM PER2 peptide as a substrate.

Row | kinetic model of SMYD2 methylation | Molecule
1 | consistent with substrate inhibition | B1

Each molecule was assayed against T1, SMYD2 (assay: In vitro SMYD2 methyltransferase assay with protein substrates (SDS-PAGE, 3H fluorography)). Conditions: 1 μg of KMT, 1 μg of substrate, 1 μCi 3H-SAM, 1 hour, room temperature; 3H fluorography (Fig. 5A, 5B, fig. S5A).
Format: biochemical
Description: Reactions (10 μl) containing 1 μg of KMT, 1 μg of the indicated substrates, and 1 μCi of ^3H-SAM (PerkinElmer) in KMT reaction buffer were incubated for 1 hour at room temperature. Reactions were quenched by the addition of SDS loading buffer and resolved by SDS–polyacrylamide gel electrophoresis. Following the detection of total protein by Coomassie staining, gels were treated with EN^3HANCE (PerkinElmer) and dried, and methylated proteins were detected by autoradiography.
Fig. S5. In vitro SMYD2 assays with protein substrates. (A) Coomassie stained SDS-PAGE of recombinant control (HIS-GST), known substrates (p53, MAPKAPK3), and predicted substrates (PRDM11, GDAP1, MAP3K12) in the absence and presence of SMYD2. Reactions were carried out with 1 μg of SMYD2, 1 μg of substrate, and 1 μCi of 3H-SAM. 3H fluorograph shown below after 24 hour exposure at -80 °C (B) Cartoon repre- sentation of ZPK (PDB:
5CEN) showing plus and minus three amino acids from the target lysine (PO) as stick models.
(1 picture or pasted object on this page, not shown here)

Row | Molecule | methylation of recombinant protein substrate by SMYD2
2 | B2 | methylated by SMYD2; also recorded: poor SMYD2 substrates
3 | B1 | methylated by SMYD2; also recorded: at least as efficiently as the known substrate, p53
4 | B3 | methylated by SMYD2; also recorded: poor SMYD2 substrates
5 | B4 | methylated by SMYD2; also recorded: at least as efficiently as the known substrate, p53
6 | B5 | methylated by SMYD2; also recorded: at least as efficiently as the known substrate, p53
7 | B6 | weaker than most of the newly identified SMYD2 substrates
8 | B7 | improved methylation of this protein
